# Source: the nanobody polyreactivity screen of Harvey et al. (2022)
# Assay: yeast display, Sf9 membrane polyspecificity reagent, FACS + sequencing; frameworks hold sequencing errors
# In short: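 Polyreactivity labels are assigned by the sorting gate from which each nanobody was recovered. The gates were low and high (top ~1%), set on anti-HA fluorescence for expression and streptavidin fluorescence for reagent binding. Before sorting, galactose-induced (36–48 hours) yeast display cells were stained for 1 hour at 4 °C with 10% biotinylated, detergent-solubilized Sf9 membrane reagent.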
row,Sequence,polyreactivity (PSR sort gate)
1,QVQLVESGGGLVQAGGSLRLSCAASGSIFVRNAMGWYRQAPGKERELVASISYSGGTTYADSVKGRFTISRDNAKNTVYLQMNSLKPEDTAVYYCNAGGVYPRFTFLEQGYEMDYWGQGTQVTVSS,low polyreactivity
2,QVQLVESGGGLVQAGGSLSLSCAASGRTFASNAIGWYRQAPGKERELVAAISSAGGTNYADSVKGRFTISRDNAKNTVYLQMISLKPEDTAVYYCAAASPYYSYHRYIYYYWGQGTQVTVSS,high polyreactivity
3,QVQLVESGGGLVQAGGSLRLIWAASGFTFWLNAMGWYRQAPGKERELVAAINWSGGSTYYADSVKGRFTISRDNAKNTVYLLMNILKPEDTAVYYCNRRGQYTFWPIHEYWGQGTQVTVSS,high polyreactivity
4,QVQLVESGGGLVQAGGSLRLSCAASGFTFDANAMGWYRQAPGKERELVAAINWSGGSTYYADSVKGRFTISRDNAKYTVYLQMNSLKPEDTAVYYCAAELWGLFDYWGQGTQVTVSS,low polyreactivity
5,QFQLVESGGGLVQAGGSLRLSCAASGRTFGFNAMGWYIQAPGKERELVAAISGSGGRTYYADSVKGRFTISRDKPKNTVYLQMNSLKPEDTAVYYCAAGARRGGSGYLGQGTQVTVSS,high polyreactivity
6,QVQLVESGGGLVQAGGSLRLSCAASGSTFVYYDMGWYRQAPGKERELVAAITGSVDSTYYADSVKGRFTISRDNAKNTVYLQMNSLKPEDTAVYYCAADTYSTYWGQGTQVTVSS,low polyreactivity
7,QVQLVESGGGLVQAGGSLRLSCDASGRTFYRNDMGWYRQAPGKERELVAAISSGGSTTYADSVKGRFTISRDNAKNTVYLQMNSLKPEDTAVYYCAADFLDYWGVYGWAEYEYWGQGTQVTVSS,low polyreactivity
8,QVQLVESGGGLVQAGGSLRLSCAASGFIFRNYAMGWYRQAPGKERELVAAISRGGRTNYADSVKGLFTISRDNAKNTVYLQMNSLKPEDTAVYYCNAVTVGLYDYWGQVTQVTVSS,high polyreactivity
9,QVQLVESGGGLVQAGGSLRLSCAASGLTFAYYAMGWYRQAPGKERELVAAITSSGTSTYYADSVKGRFTISRDNAKNTVYLQMNSQKPEDTAVYYCNARVYGYRYTYRMDYWGQGTQVTVSS,high polyreactivity
10,QVQLVESGGGLVQAGGSLSLSCAASGRTFRYYAMGWYRQAPGKERELVAAMRTRGASTYYADSVKGRFTISRDNAKNSVYLQMNSLKPEVSAVYYCAASRSGHGIIDYDSWGK,low polyreactivity
11,QVQLVESGGGLVQAGGSLRLSCAASGRTFSYNAMGWYRQAPGTERELVAAISGGGSTDYADSVKGRFTISRDNAKNTVYLQMNSLKPEDTAVYYCAAGWYVYTFFEFYVFDGDYWGQGTQVTVSS,low polyreactivity
12,QVQLVESGGGLVQAGGSLRLSCAASGIIFATYAMGWYRQAPGKERELVAAISSGGRTYYADSVKGRFTISRDNAKNTVYFQMNSLKPEDTAVYYCAAKSGGRSSLYNYWGQGTQVTVSS,high polyreactivity
13,QVQLVESGGGLVQAGGSLRLSCSASGSTFSDNVMGWYRQAPGKERELVAGITRSGGRTYYADSVKGRFTISRDNAKNTVYLQMNSLKPEDTAVYYCAAASSGEYGYWGQGTQVTVSS,low polyreactivity
14,QVQLVESGGGLVQAGGSLRLSCAASGFISSDYAMGWYRQAPGKEREFVAGISRGGGSTYYADSVKGRFTISRDHAKNTVYLQMISLKPEDTAVYYCNARTSLRKYQYYYWGQGTQVTVSS,high polyreactivity
15,QVQLVESGGGLVQAGGSLRLSCAASGRTSSTYDMGWYRLAPGKERELVADITWYGGSTYYADSVKGRFTISRDNAKNTVYLQMNSLIPEDTAVYYCAAERKDGGYGYGFYWGVVGLDYWGQGTQVTVSS,low polyreactivity
16,QVQLVESGGGLVQAGGSLRLSCAASGRTFGYYAMGWYRQAPGKERELVAAISTRSGSTYYADSVKGRFTISRDNAKNTVYLQMNSLKPEDTAVYYCAADSYPDYDYWGQGTQVTVSS,low polyreactivity
17,QVQLVESVGGLVQAGGSLRLICAASGSTFNWYAMGWYRQAPGKERDLVADITWRDGSTYYADSVKGRFTISRDNAKNTVYLQMNSLKPDDPAVYYCADDYTYWGIFFGYWGQGTQVTVSS,high polyreactivity
18,QVQLVESGGGLVQAAGSLRLSCAASGQFFAYYAMGWYRQATGKEREFVAAISWTGGSTYYADSVKGRFTISRDYAKKTVYLLMNSLKPEDTGVYYCAAVSNHLRYVASRYSYYYWGQGTQVTVSS,high polyreactivity
19,QVQLVESGGGLVQAGGSLRLSCAASGIIFSFYTMGWYRQAPGKERELGAAITWSGGSTYYADSVKGRFTISRDNAKNTVYLQMNSLKPEDTAVYYCARSQAVYDGWFAKFGYWGQGTQVTVSS,low polyreactivity
20,QVQHVESGGGLVHAGGSLRLSCAASGTTFYFNPMGWSRQAPGKERELVASITWRGVSTYYADSVKGRFTISRDNAKNTVYLHMNSLNPEDTAVYYCAVAAGIPQRRFYYWGQGTQVTVSS,high polyreactivity
21,QVQLVESGGGLVQAGGSLRLSCAASGGIFWAYAMGWYRQAPGKERELVAAITTLGTSTYYADSVKGRFTISRDNAKNTVYLQMNSLKPEDTGVYYCAAVDPYSYSFDYWGQGTQVTVSS,high polyreactivity
22,QVQLVESGGGLVQAGGSLRLICAASGFIYSYYAMGWYRQAPGKERELVAVISGSGGGTYYAVSVKGRFRISRDNAKNTVYLQMNSLKPEDTAVYDFAARNSGGTTKYYYWGQGTQVTVSS,high polyreactivity

row,Sequence,polyreactivity (PSR sort gate)
1,QVQLVESGGGLVQAGGSLRLSCAASGSIFDTYAMGWYRQAPGKERELVAAITQSGDRTYYADSVKGRFTISRDNAKNTVYLQMNSLKPEDTAVYYCNTRRGSAWSSDYWGQGTQVTVSS,low polyreactivity
2,QVQLVESGGGLVQAGGSLRLSCAASGSTFGRYVMGWYRPAPGKERELVAAISKNAGSTYYADSVKGRFTISRDNAKNTVYLQMNSLKPEDTAVYYCNAQSFREYGYWGQGTQVTVSS,high polyreactivity
3,QVQLVESGGGLVQAGGSLRLSCAASGSTFTHYAMGWYIQAPWKERELVAGISWGGSSTYYADSVKGRFTISRDNAKNTVYLQMNSLKPEDTAVYYCAAGRRGSYPGGYGYWGQGTQVTVSS,low polyreactivity
4,QVQLVESGGGLVQAGGSLRLSCAASGRTFLYNAMGWYRQAPGKERELVASISYSGGSTYYADSVKGRFTISRDTAKYTVYLQMNSLKPEDTAGYYCAARFYASQDIRYDYWGQGTQVTVSS,high polyreactivity
5,QVQLVESVGGLVQAGGSLRLSSAASGYIFFGNAMGWYRQAPGKERELVAAIRWRGTSTYYADSVKGRFTISRDNAKNTVYLQMNSLKPEDTAVYYCAKDGRVHSPYDYWGQGTQVTVSS,low polyreactivity
6,QVQLEESGGGLVQAGGSLRLSCAASGFTFRLYAMGWYRHAPGKERELFARISSGGSTHYADSVKGRFTISRDNAKNTVFLQMNSLKPEDTAVYYCAAGWGYWRSYGSWGQGTQVTFSS,high polyreactivity
7,QVQLVESGGCLVQAGGSLRLSCAASGRTFRYYAMGWYRQAPGRERELVAAIRRAGSTTYADSVKGRFTISRDNAKNTVYLQMNSLKPEDTAVYYCIARRYGYGYALDYWGQGTQVTVSS,high polyreactivity
8,QVQLVESGGGLVQAGGSLRLSCAASGSTFEYYAMGWYRQAPGKERELVAAISTAGSTYYADSVKGRFTISRDNAKNTVYLQMNSLKQEDTAVYYCAVDPSPRSYYNYYWGQGTQVTVSS,high polyreactivity
9,QVQLVESGGGLVQAGGSLRLSCAASGGTFRRYTMGWYRQAPGKERELVAVISRSGGSTYYADSVKGRFTISRDNAKNTVYLQMNSLKPEDTAVYYCAVVYYNGYDWGQGTQVTVSS,high polyreactivity
10,QVQLVESGGGLVQAGGSLRLSCAASGRTFTRYAMGWYRQAPGKERELVAAISRGGGGTYYADSVKGRFTISRDNAKNTVYLQMNSLKPEDTAVYYCAADGDRSAQRYTGYYYWGQGTQVTVSS,high polyreactivity
11,QVQLVESGGGLVQAGGSLRLSCAASGRIFTRYAMGWYRQAPGTERELVAVITRSGGSTYYADSVKGRFTISRDNAKNTVYLQMNSLKPEDTAVYYCAAKYYGEMYYWGQGTQVTVSS,low polyreactivity
12,QVQLVESGGGLVQAGGSLRLSCAASGRTFVPNTMGWYRQAPGKERELVAAIRWSVGSTYYADSVKGRFTISRDNAKNTVYLQMNSLKPEDTAVYYCAAYYSRSYLRYGMDYWGQGTQVTVSS,high polyreactivity
13,QVQLVESGGGLVQAGGSLRLSCAASGGIFGSYAMAWYRQAPGKERELVAAISWTGGSTYYADSVKGRFTISRDNAKNTVYLQMNSLKPEDTAVYYCNADTYRRAQLRFNSWGQGTQVTVSS,low polyreactivity
14,QVQLVESGGGLVQAGGSLRLSCAASGITFWLYAMGWSRQAPGKERELVAGIDNGGSTTYADSVKGRFTISRDNAKNTVYLQMNSLNPEDTAVYYCAATFEWDPVYPYNGFIYDYWGQGTQVTVSS,high polyreactivity
15,QVQLVESGGGLVQAGGSLRLSCAASGLTLGRYAKGWYRQAPGKARELVAVITGGGSTNYADSVKGRFTISRDNAKNTVYLQMNTLKTEDTAVYFCAVRGGIFQTLSTWYRYYYWGQGTQVTVSS,high polyreactivity
16,QVQLVESGGGLVQAGGSLRLSCAASGSIFDYNVMGWYRKAPGKERELVAAITYNDGSTYYADSVKGRFTISRDNAKNTVYLQMNSLKPEDTAVYYCAADYPGGGIYWYFYVYDYDYWGQGTQVTVSS,low polyreactivity
17,QVQLVESGGGLVQAGVSLRLSCAASGYIFRFNAMGWYRQAPGKERELVAVITSGARTYYADSVKGRFTISRDNAKNTVYLQMNSLKPEDTAVYYCNAGARRYLYDYWGQGTQVTVSS,low polyreactivity
18,QVQLVESGGGLLQAGGSLRLSCAASGSIFGQYAMGWYIQAPGKERELVAAISTRGGSTRYADSVKGRFTISRDNAKNTVYLQMNSLKPEDTAVYYCAARVPYIRHLAVDYWGQGTQVTVSS,high polyreactivity
19,QVQLVESGGGLVQAGGSLRLSCAASGFTFGGNVMGWYRQAPGKERELVAAISSSGGSTYYADSVKGRFTISRDNAKNTVYLQMNSLKPEDTAVYYCAATTYGWWGYQYDYWGQGTQVTVSS,high polyreactivity
20,QVQLVESGGGLVQAGGSLRLSCAASGSIFEGNGMGWYIQAPGKERELVAAITFRSGSTYYADSVKGRFTISLDNAKNTVYLQMNSLKPEDTAVYYCAADEYYQVSAYDYWGQGTQVTVSS,low polyreactivity
21,QDQLVESGGGLVQAGGSLRLSCAASGYTFSYYAMGWYRQAPGKERELVAAITSTGSTYYADSVKGRFTISRDYAKNTVYLQMNILKPEDTAVYYCNVDDATVGPVDYWGQGTQVTVSS,low polyreactivity
